Earlier results in patent publication US20040071657A1, “Chemoattractant recruitment of dendritic cells for enhancement of immunization” (priority 2003, published 2004).

System: circulating DC
Settings: in vivo administration to mice

B1: Flt3-L: Flt3 ligand, a growth factor polypeptide that promotes dendritic cell growth (protein, UniProt P49771 27-235, looked up)
Fms-related tyrosine kinase 3 …: TQDCSFQHSPISSDFAVKIRELSDYLLQDYPVTVASNLQDEELCGGLWRLVLAQRWMERLKTVAGSKMQGLLERVNTEIHFVTKCAFQPPPSCLRFVQTNISRLLQETSEQLVALKPWITRQNFSRCLELQCQPDSSTLPPPWSPRPLEATAPTAPQPPLLLLLLLPVGLLLLAAAWCLHWQRTRRRTPRPGEQVPPVPSPQDLLLVEH
increase in the number of circulating DC: 10-30 fold
